Assay results from patent publication US20220195012A1.

What was measured:
Test in all cases: cell-based or functional assay
[1] = substrate: CP C3-convertase (C4b2a) (UniProt P0C0L4)
[2] = target: C3b (UniProt P01024)
[3] = target: AP C3-convertase (C3bBb) (UniProt P01024)
[4] = target: C4b (UniProt P0C0L4)
C4b, sequence (P0C0L4 757-1446 limits assumed, chain 1 of 3): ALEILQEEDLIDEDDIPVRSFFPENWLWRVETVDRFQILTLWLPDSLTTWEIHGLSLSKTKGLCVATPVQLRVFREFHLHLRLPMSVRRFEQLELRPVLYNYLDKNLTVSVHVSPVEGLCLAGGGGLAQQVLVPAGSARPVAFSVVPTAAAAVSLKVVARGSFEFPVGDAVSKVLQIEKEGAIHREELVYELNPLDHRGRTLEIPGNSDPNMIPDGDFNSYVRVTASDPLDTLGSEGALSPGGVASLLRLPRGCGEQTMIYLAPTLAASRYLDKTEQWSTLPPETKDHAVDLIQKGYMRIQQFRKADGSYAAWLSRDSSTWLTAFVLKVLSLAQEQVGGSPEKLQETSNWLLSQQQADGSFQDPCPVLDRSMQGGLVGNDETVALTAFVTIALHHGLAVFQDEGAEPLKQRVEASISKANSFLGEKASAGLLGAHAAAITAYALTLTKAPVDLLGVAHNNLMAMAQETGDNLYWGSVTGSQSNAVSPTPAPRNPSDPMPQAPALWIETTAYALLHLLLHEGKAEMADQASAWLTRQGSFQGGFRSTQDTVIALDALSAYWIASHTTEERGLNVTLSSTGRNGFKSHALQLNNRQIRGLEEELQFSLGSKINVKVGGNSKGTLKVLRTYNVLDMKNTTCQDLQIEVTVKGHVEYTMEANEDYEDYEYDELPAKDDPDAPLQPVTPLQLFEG
C4b, sequence (P0C0L4 20-675 limits assumed, chain 2 of 3): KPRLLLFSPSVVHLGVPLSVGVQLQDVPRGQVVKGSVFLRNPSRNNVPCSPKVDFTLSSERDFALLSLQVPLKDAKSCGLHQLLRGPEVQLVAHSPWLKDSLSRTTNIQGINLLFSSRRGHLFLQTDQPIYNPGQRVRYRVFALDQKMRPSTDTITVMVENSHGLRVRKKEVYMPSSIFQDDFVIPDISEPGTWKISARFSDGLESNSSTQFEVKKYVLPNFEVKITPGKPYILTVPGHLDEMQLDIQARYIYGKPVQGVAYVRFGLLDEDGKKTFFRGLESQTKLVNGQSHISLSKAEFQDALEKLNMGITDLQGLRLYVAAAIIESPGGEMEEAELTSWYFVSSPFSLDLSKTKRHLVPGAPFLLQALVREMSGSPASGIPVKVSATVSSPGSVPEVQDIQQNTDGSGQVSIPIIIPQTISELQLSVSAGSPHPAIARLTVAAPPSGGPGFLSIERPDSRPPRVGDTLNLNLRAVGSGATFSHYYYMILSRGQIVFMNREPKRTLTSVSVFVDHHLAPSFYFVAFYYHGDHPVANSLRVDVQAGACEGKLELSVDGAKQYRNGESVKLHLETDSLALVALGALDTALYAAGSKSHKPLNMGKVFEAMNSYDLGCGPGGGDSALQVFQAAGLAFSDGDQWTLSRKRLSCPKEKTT
C4b, sequence (P0C0L4 1454-1744 limits assumed, chain 3 of 3): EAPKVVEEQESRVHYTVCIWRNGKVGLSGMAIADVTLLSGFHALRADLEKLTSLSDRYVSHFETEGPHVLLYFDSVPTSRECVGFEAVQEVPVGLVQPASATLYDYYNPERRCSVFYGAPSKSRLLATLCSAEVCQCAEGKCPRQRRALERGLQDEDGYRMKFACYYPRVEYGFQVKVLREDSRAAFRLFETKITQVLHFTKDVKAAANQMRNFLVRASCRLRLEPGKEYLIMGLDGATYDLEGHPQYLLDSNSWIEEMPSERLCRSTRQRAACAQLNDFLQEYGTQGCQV

CP C3-convertase (C4b2a), sequence (P0C0L4 757-1446 limits assumed, chain 1 of 4): as the sequence (P0C0L4 757-1446 limits assumed, chain 1 of 3) above
CP C3-convertase (C4b2a), sequence (P0C0L4 20-675 limits assumed, chain 2 of 4): as the sequence (P0C0L4 20-675 limits assumed, chain 2 of 3) above
CP C3-convertase (C4b2a), sequence (P0C0L4 1454-1744 limits assumed, chain 3 of 4): as the sequence (P0C0L4 1454-1744 limits assumed, chain 3 of 3) above
CP C3-convertase (C4b2a), sequence (P06681 244-752 limits assumed, chain 4 of 4, further chain): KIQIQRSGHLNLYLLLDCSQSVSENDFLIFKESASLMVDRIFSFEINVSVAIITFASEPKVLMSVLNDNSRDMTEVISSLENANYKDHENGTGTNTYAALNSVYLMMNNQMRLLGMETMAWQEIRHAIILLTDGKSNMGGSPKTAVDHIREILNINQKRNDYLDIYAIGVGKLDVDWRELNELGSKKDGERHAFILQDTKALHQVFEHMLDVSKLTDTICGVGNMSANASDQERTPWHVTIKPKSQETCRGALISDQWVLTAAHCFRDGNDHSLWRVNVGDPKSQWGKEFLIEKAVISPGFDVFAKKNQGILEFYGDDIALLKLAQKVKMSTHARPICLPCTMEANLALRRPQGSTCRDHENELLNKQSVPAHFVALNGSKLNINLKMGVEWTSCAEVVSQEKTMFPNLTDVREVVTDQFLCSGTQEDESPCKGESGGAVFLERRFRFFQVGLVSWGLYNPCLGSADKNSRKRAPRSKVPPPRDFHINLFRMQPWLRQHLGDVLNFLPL
AP C3-convertase (C3bBb), sequence (P01024 23-667 limits assumed, chain 1 of 3): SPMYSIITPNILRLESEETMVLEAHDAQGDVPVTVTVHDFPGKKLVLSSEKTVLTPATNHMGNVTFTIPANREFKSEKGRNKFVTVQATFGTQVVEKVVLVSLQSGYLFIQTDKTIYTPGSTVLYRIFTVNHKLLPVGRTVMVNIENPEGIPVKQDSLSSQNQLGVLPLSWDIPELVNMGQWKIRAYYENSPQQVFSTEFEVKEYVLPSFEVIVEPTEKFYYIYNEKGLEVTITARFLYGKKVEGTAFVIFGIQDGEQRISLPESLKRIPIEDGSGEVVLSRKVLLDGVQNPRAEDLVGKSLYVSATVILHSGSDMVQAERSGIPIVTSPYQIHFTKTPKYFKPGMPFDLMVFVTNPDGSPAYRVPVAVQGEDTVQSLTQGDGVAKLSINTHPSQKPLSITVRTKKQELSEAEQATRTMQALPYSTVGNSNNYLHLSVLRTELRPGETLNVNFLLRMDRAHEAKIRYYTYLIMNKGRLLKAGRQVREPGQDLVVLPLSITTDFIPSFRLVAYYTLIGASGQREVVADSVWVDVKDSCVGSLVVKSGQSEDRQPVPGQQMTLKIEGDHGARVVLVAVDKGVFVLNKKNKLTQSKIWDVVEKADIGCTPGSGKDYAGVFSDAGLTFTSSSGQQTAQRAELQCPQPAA
AP C3-convertase (C3bBb), sequence (P01024 749-1663 limits assumed, chain 2 of 3): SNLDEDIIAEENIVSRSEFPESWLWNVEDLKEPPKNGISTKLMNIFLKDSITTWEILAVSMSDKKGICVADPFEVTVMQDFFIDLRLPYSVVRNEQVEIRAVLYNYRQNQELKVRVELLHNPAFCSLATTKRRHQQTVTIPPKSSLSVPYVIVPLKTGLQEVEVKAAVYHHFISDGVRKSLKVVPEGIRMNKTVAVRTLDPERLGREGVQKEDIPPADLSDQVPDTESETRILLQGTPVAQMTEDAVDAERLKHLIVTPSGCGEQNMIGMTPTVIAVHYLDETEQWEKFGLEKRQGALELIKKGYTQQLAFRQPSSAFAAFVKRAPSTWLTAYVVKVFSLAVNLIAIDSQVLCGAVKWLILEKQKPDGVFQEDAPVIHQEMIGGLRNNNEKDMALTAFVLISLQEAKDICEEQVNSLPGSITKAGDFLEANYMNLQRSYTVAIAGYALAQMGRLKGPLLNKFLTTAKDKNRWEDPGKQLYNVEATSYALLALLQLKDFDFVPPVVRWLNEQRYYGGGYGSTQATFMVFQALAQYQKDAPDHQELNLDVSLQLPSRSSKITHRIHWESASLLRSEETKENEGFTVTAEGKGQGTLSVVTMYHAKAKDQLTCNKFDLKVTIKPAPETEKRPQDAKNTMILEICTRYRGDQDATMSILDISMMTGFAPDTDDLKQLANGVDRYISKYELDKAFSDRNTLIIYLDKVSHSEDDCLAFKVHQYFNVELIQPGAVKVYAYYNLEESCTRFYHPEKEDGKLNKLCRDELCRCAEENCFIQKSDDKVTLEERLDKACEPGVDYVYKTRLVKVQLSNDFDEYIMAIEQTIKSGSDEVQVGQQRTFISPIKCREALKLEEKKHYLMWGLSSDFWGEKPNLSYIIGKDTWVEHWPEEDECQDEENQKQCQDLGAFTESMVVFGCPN
AP C3-convertase (C3bBb), sequence (P00751 260-764 limits assumed, chain 3 of 3, further chain): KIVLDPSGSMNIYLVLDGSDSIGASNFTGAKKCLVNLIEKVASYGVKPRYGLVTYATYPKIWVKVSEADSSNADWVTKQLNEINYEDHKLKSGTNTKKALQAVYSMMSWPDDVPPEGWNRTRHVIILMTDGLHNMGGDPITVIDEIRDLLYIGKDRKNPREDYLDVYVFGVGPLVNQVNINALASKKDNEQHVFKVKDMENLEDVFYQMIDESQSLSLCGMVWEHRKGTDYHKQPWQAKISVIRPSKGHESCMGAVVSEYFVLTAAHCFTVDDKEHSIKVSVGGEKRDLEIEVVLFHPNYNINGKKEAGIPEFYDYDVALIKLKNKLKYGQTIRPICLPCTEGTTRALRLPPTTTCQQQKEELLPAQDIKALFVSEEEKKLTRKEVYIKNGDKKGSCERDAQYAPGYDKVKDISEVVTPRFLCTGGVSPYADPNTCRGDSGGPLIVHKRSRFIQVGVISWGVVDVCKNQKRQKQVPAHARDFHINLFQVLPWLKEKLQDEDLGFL
C3b, sequence (P01024 23-667 limits assumed, chain 1 of 2): as the sequence (P01024 23-667 limits assumed, chain 1 of 3) above
C3b, sequence (P01024 749-1663 limits assumed, chain 2 of 2): as the sequence (P01024 749-1663 limits assumed, chain 2 of 3) above

B1: D2D3M3M4 (L205K) (protein)
chain: CEVPTRLNSASLKQPYITQNYFPVGTVVEYECRPGYRREPSLSPKLTCLQNLKWSTAVEFCKKKSCPNPGEIRNGQIDVPGGILFGATISFSCNTGYKLFGSTSSFCKISGSSVQWSDPLPECREIYCTPPPKIKNGKHTFSEVEVFEYLDAVTYSCDPAPGPDPFSLIGESTIYCGDNSVWSRAAPECKVVKCRFPVVENGKQISGFGKKFYYKATVMFECDKGFYLDGSDTIVCDSNSTWDPPVPKCLKVL
CP-DAA IC50 [1]: 9.2 µM | Relative CP-DAA [1]: 1.7 | C3b CFA: Time (min.) for 50% cleavage of C3B α′-chain [2]: 104 min | Relative C3b CFA [2]: 0.8 | AP-DAA IC50 [3]: > 0.01 µM | Relative AP-DAA [3]: 0.2 | C4b CFA: Time (min.) for 50% cleavage of C4B α′-chain [4]: 433 min | Relative C4b CFA [4]: 1.07

B2: D2D3M3M4 (P216K) (protein)
chain: CEVPTRLNSASLKQPYITQNYFPVGTVVEYECRPGYRREPSLSPKLTCLQNLKWSTAVEFCKKKSCPNPGEIRNGQIDVPGGILFGATISFSCNTGYKLFGSTSSFCLISGSSVQWSDKLPECREIYCTPPPKIKNGKHTFSEVEVFEYLDAVTYSCDPAPGPDPFSLIGESTIYCGDNSVWSRAAPECKVVKCRFPVVENGKQISGFGKKFYYKATVMFECDKGFYLDGSDTIVCDSNSTWDPPVPKCLKVL
CP-DAA IC50 [1]: 21 µM | Relative CP-DAA [1]: 0.75 | C3b CFA: Time (min.) for 50% cleavage of C3B α′-chain [2]: 30.1 min | Relative C3b CFA [2]: 2.7 | AP-DAA IC50 [3]: 0.0034 µM | Relative AP-DAA [3]: 0.6 | C4b CFA: Time (min.) for 50% cleavage of C4B α′-chain [4]: 93.3 min | Relative C4b CFA [4]: 5

B3: D2D3M3M4 (Multi-1) (protein)
chain: CEVPTRLNSASLKQPYITQNYFPVGTVVEYECRPGYRREPSLSPKLTCLQNLKWSTAVEFCKKKSCPNPGEIRNGQIDVPGGILFGATISFSCNTGYKLFGSTSSFCLISGSSVQWSDPLPICEKVLCTPPPKIKNGKHTFSEVEVFEYLDAVTYSCDPAPGPDPFSLIGESTIYCGDNSVWSRAAPECKVVKCRFPVVENGKQISGFGKKFYYKATVMFECDKGFYLDGSDTIVCDSNSTWDPPVPKCLKVL
CP-DAA IC50 [1]: 22.6 µM | Relative CP-DAA [1]: 0.7 | C3b CFA: Time (min.) for 50% cleavage of C3B α′-chain [2]: 27.3 min | Relative C3b CFA [2]: 3 | AP-DAA IC50 [3]: 0.0019 µM | Relative AP-DAA [3]: 1.1 | C4b CFA: Time (min.) for 50% cleavage of C4B α′-chain [4]: 493 min | Relative C4b CFA [4]: 1.07

B4: D2D3M3M4 (Multi-5) or DCP (decay-cofactor protein) (protein)
chain: CEVPTRLNSASLKQPYITQNYFPVGTVVEYECRPGYRREPSLSPKLTCLQNLKWSTAVEFCKKKSCPNPGEIRNGQIDVPGGILFGATISFSCNTGYKLIGSTSSFCLISGSSVQWSDKLPICEKVLCTPPPKIKNGKHTFSEVEVFEYLDAVTYSCDPAPGPDPFSLIGESTIYCGDNSVWSRAAPECKVVKCRFPVVENGKQISGFGKKFYYKATVMFECDKGFYLDGSDTIVCDSNSTWDPPVPKCLKVL
CP-DAA IC50 [1]: 12.7 µM | Relative CP-DAA [1]: 1.3 | C3b CFA: Time (min.) for 50% cleavage of C3B α′-chain [2]: 3.3 min | Relative C3b CFA [2]: 1.5 | AP-DAA IC50 [3]: 0.0024 µM | Relative AP-DAA [3]: 1.3 | C4b CFA: Time (min.) for 50% cleavage of C4B α′-chain [4]: 3.1 min | Relative C4b CFA [4]: 3

B5: D2M2-4 (Tetra) (protein)
chain: CEVPTRLNSASLKQPYITQNYFPVGTVVEYECRPGYRRQPSLSPKLTCLQNLKWSTAVEFCKKKSCPNIRDPLNGQAVPANGTYEFGYQMHFICNEGYYLAGEEILYCELKGSVAIWSGKPPICEKVKCTPPPKIKNGKHTFSEVEVFEYLDAVTYSCDPAPGPDPFSLIGESTIYCGDNSVWSRAAPECKVVKCRFPVVENGKQISGFGKKFYYKATVMFECDKGFYLDGSDTIVCDSNSTWDPPVPKCLKVL
AP-DAA, fold increase compared to D2M2-4 [3]: 12.5 fold | AP-DAA, fold less compared to DAF [3]: 138 fold

B6: D2D3M3M4 (T192E) (protein)
chain: CEVPTRLNSASLKQPYITQNYFPVGTVVEYECRPGYRREPSLSPKLTCLQNLKWSTAVEFCKKKSCPNPGEIRNGQIDVPGGILFGATISFSCNEGYKLFGSTSSFCLISGSSVQWSDPLPECREIYCTPPPKIKNGKHTFSEVEVFEYLDAVTYSCDPAPGPDPFSLIGESTIYCGDNSVWSRAAPECKVVKCRFPVVENGKQISGFGKKFYYKATVMFECDKGFYLDGSDTIVCDSNSTWDPPVPKCLKVL
CP-DAA IC50 [1]: 15.5 µM | Relative CP-DAA [1]: 1 | C3b CFA: Time (min.) for 50% cleavage of C3B α′-chain [2]: 74.3 min | Relative C3b CFA [2]: 1.1 | AP-DAA IC50 [3]: 0.0025 µM | Relative AP-DAA [3]: 0.9 | C4b CFA: Time (min.) for 50% cleavage of C4B α′-chain [4]: 268 min | Relative C4b CFA [4]: 8.7

B7: D2D3M3M4 (K195Y) (protein)
chain: CEVPTRLNSASLKQPYITQNYFPVGTVVEYECRPGYRREPSLSPKLTCLQNLKWSTAVEFCKKKSCPNPGEIRNGQIDVPGGILFGATISFSCNTGYYLFGSTSSFCLISGSSVQWSDPLPECREIYCTPPPKIKNGKHTFSEVEVFEYLDAVTYSCDPAPGPDPFSLIGESTIYCGDNSVWSRAAPECKVVKCRFPVVENGKQISGFGKKFYYKATVMFECDKGFYLDGSDTIVCDSNSTWDPPVPKCLKVL
CP-DAA IC50 [1]: > 100 µM | Relative CP-DAA [1]: 6.2 | AP-DAA IC50 [3]: > 0.01 µM | Relative AP-DAA [3]: 0.2 | C4b CFA: Time (min.) for 50% cleavage of C4B α′-chain [4]: > 540 min | Relative C4b CFA [4]: < 0.85

B8: D2D3M3M4 (F197I) (protein)
chain: CEVPTRLNSASLKQPYITQNYFPVGTVVEYECRPGYRREPSLSPKLTCLQNLKWSTAVEFCKKKSCPNPGEIRNGQIDVPGGILFGATISFSCNTGYKLIGSTSSFCLISGSSVQWSDPLPECREIYCTPPPKIKNGKHTFSEVEVFEYLDAVTYSCDPAPGPDPFSLIGESTIYCGDNSVWSRAAPECKVVKCRFPVVENGKQISGFGKKFYYKATVMFECDKGFYLDGSDTIVCDSNSTWDPPVPKCLKVL
CP-DAA IC50 [1]: 30.7 µM | Relative CP-DAA [1]: 0.5 | C3b CFA: Time (min.) for 50% cleavage of C3B α′-chain [2]: 49.8 min | Relative C3b CFA [2]: 1.7 | AP-DAA IC50 [3]: 0.0044 µM | Relative AP-DAA [3]: 0.3 | C4b CFA: Time (min.) for 50% cleavage of C4B α′-chain [4]: 96.7 min | Relative C4b CFA [4]: 7

B9: D2D3M3M4 (S199K) (protein)
chain: CEVPTRLNSASLKQPYITQNYFPVGTVVEYECRPGYRREPSLSPKLTCLQNLKWSTAVEFCKKKSCPNPGEIRNGQIDVPGGILFGATISFSCNTGYKLFGKTSSFCLISGSSVQWSDPLPECREIYCTPPPKIKNGKHTFSEVEVFEYLDAVTYSCDPAPGPDPFSLIGESTIYCGDNSVWSRAAPECKVVKCRFPVVENGKQISGFGKKFYYKATVMFECDKGFYLDGSDTIVCDSNSTWDPPVPKCLKVL
CP-DAA IC50 [1]: 23.7 µM | Relative CP-DAA [1]: 0.7 | C3b CFA: Time (min.) for 50% cleavage of C3B α′-chain [2]: 18.9 min | Relative C3b CFA [2]: 4.4 | AP-DAA IC50 [3]: 0.0065 µM | Relative AP-DAA [3]: 0.3 | C4b CFA: Time (min.) for 50% cleavage of C4B α′-chain [4]: 181 min | Relative C4b CFA [4]: 2.5

B10: D2D3M3M4 (T200Y) (protein)
chain: CEVPTRLNSASLKQPYITQNYFPVGTVVEYECRPGYRREPSLSPKLTCLQNLKWSTAVEFCKKKSCPNPGEIRNGQIDVPGGILFGATISFSCNTGYKLFGSYSSFCLISGSSVQWSDPLPECREIYCTPPPKIKNGKHTFSEVEVFEYLDAVTYSCDPAPGPDPFSLIGESTIYCGDNSVWSRAAPECKVVKCRFPVVENGKQISGFGKKFYYKATVMFECDKGFYLDGSDTIVCDSNSTWDPPVPKCLKVL
CP-DAA IC50 [1]: 17.7 µM | Relative CP-DAA [1]: 0.9 | C3b CFA: Time (min.) for 50% cleavage of C3B α′-chain [2]: 103 min | Relative C3b CFA [2]: 0.8 | AP-DAA IC50 [3]: 0.0037 µM | Relative AP-DAA [3]: 0.56 | C4b CFA: Time (min.) for 50% cleavage of C4B α′-chain [4]: 513 min | Relative C4b CFA [4]: 0.9
